Experimental data published in US20190381088, “ANTI-IL-17 APTAMER HAVING IMPROVED RETENTION IN BLOOD” (ZENYAKU KOGYO CO., LTD., published 2019).

T1: IL-17 (human IL-17) (Homo sapiens, UniProt Q16552 Q16552:24-155)
T1 sequence: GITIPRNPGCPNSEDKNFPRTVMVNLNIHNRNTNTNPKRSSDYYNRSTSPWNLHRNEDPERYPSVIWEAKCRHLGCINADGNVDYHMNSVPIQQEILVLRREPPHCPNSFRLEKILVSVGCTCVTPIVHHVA


Legend:
IL-17 (human IL-17) [1] = target: T1, IL-17 (human IL-17); test: cell_activity; inhibition of IL-17 (10 ng/mL) + mouse TNF induced IL-6 in NIH3T3 cells, 37 C preincubation 30 min; settings: chain copies: 2 inferred (homodimer)
Description: (§1) Human IL-17 (10 ng/mL) and aptamers diluted to various concentrations were pre-incubated at 37° C. for 30 min, and added to NIH3T3 cells (ATCC, CRL1658, 1.25×10⁵ cell/mL) together with mouse TNF (2 ng/mL). Then, after incubation for 24 hr, the culture supernatant was collected. After preservation at −70° C., the amount of produced IL-6 was measured by the ELISA method. The IL-17 inhibitory action of each aptamer was evaluated from the amount of produced IL-6.
A microtiter plate for ELISA was coated with rat anti-mouse IL-6 antibody (BD Biosciences, 2 μg/mL; 100 μL/well) diluted with PBS, and incubated at 4° C. overnight. The next day, the microtiter plate was washed 3 times with PBS/0.05% Tween 20, and blocked with PBS/1% BSA (200 μL/well) at room temperature for 2 hr. Then, the plate was washed 3 times with PBS/0.05% Tween 20. Recombinant mouse IL-6 (BD Biosciences; 100 μL/well) serially diluted with PBS/1% BSA/0.05% Tween 20 or culture supernatants (100 μL/well) were added to the plate. After incubation at room temperature for 2 hr, the plate was washed 3 times with PBS/0.05% Tween 20. Then, 100 μL/well of biotin conjugated rat anti-mouse IL-6 antibody (BD Biosciences) was added at final dilution of 1/500, and the mixture was reacted at room temperature for 1 hr. After washing 3 times with PBS/0.05% Tween 20, 100 μL/well of alkaline phosphatase conjugated streptavidin was added at final dilution of 1/1000. After 30 min at room temperature, the plate was again washed 4 times with PBS/0.05% Tween 20, and a substrate (1-Step PNPP; Thermo Fisher Scientific Inc; 100 μL/well) was added. After 15 min, aqueous sodium hydroxide solution (2N: 50 μL/well) was added to stop the reaction, and the plate was read on a microtiter reader (Bio-Rad) by using a 405 nm filter.

IL-17 (human IL-17) [2] = target: T1, IL-17 (human IL-17); test: cell_activity; nucleic acid alone; IL-6 release from NIH3T3 cells; settings: chain copies: 2 inferred (homodimer)
Description: Aptamers in which a brancher, a spacer, an ssH amino linker were added to the nucleic acid sequences of Example sequences 1, 2, 3 and 4, and 40 kDa 2 branched PEG was added (total PEG molecular weight: 80 kDa each) were synthesized (FIG. 1 structure 1). The IL-17 neutralization activity of each aptamer was measured along with the aptamer having the original nucleic acid sequence alone. The evaluation was based on the measurement of the amount of IL-6 released in the cultured cells by the stimulation of IL-17 and TNFα to the cells.
as §1
A microtiter plate for ELISA was coated with rat anti-mouse IL-6 antibody (BD Biosciences, 2 μg/mL; 100 μL/well) diluted with PBS, and incubated at 4° C. overnight. The next day, the microtiter plate was washed 3 times with PBS/0.05% Tween 20, and blocked with PBS/1% BSA (200 μL/well) at room temperature for 2 hr. Then, the plate was washed 3 times with PBS/0.05% Tween 20. […]

Row | Binder | IC50 (IL-17 (human IL-17) [1]) | IC50 (IL-17 (human IL-17) [2])
1 | GGGUAGCCGGAGGAGTCAGTAAUCGGUACCC (mixed, 2'-OMe at 1-4,7,8,10,13,14,23-26,28; 2'-F at 11,17,18,27; PS at g6; DNA at A5,G9,T16,T20,C29-C31; rest 2'-OH RNA; 3' idT (stated for in vivo tests); 5' symmetrical brancher with spacer + ssH amino linker + 2 x 40 kDa branched PEG (80 kDa total)) [Example sequence 1 (aptamer No. 8) PEG-linker-spacer-brancher] | 0.041 nM | –
2 | GGGUAGCCGGAGGAGTCAGTAAUCGGUACCC (mixed, 2'-OMe at 1-4,7,8,10,13,14,23-26,28-31; 2'-F at 11,17,18,27; PS at g6; DNA at A5,G9,T16,T20; rest 2'-OH RNA; no PEG) [Example sequence 4 (aptamer No. 93) nucleic acid alone] | – | 0.123 nM
3 | GGGUAGCCGGAGGAGTCAGTAAUCGGUACCC (mixed, 2'-OMe at 1-4,7,8,10,13,14,23-26,28; 2'-F at 11,17,18,27; PS at g6; DNA at A5,G9,T16,T20,C29-C31; rest 2'-OH RNA; no PEG) [Example sequence 1 (aptamer No. 8) nucleic acid alone] | – | 0.223 nM
4 | GGGUAGCCGGAGGAGTCAGTAAUCGGUACCC (mixed, 2'-OMe at 1-4,7,8,10,13,14,23-26,28; 2'-F at 17,27; DNA at A5,G9,T16,T20,C29-C31; rest 2'-OH RNA; 3' idT (stated for in vivo tests); 5' symmetrical brancher with spacer + ssH amino linker + 2 x 40 kDa branched PEG (80 kDa total)) [Example sequence 2 (aptamer No. 48) PEG-linker-spacer-brancher] | 0.18 nM | –
5 | GGGUAGCCGGAGGAGTCAGTAAUCGGUACCC (mixed, 2'-OMe at 1-4,7,8,10,13,14,23-26,28-31; 2'-F at 11,17,18,27; PS at g6; DNA at A5,G9,T16,T20; rest 2'-OH RNA; 3' idT (stated for in vivo tests); 5' symmetrical brancher with spacer + ssH amino linker + 2 x 40 kDa branched PEG (80 kDa total)) [Example sequence 4 (aptamer No. 93) PEG-linker-spacer-brancher] | 0.06 nM | –
